What was measured:
dendritic cells = experiment: Mouse study: CD4+ T cells from peptide-dosed mice incubated with antigen-loaded dendritic cells; type: cell-based; conditions: 50 ug peptide orally for 4 weeks; tetanus toxoid as control
Experimental: Mouse Study: A composition comprising 50 ug of the cross-reactive peptide comprising the MHC-II-binding T-cell epitope 5′-[…]-3′ and a pharmaceutical acceptable carrier is administered orally to mice for 4 weeks. Two weeks after the last dose, blood is drawn from a peripheral vein and CD4+ T cells are purified by cell sorting on magnetic beads. CD4+ T-cells are added to culture medium in which histocompatible dendritic cells, used as antigen presenting cells, are incubated with either the peptide sequence or with tetanus toxoid as a control for 2 hr at room temperature. The cells are then washed and purified CD4+ T-cells are added to culture medium. […] Incubation of CD4+ T-cells with dendritic cells loaded with the hazelnut Cor_i_9 antigen results in dendritic cell apoptosis.

[1] = Single allergen subcutaneous immunotherapy in walnut and hazelnut allergic subjects; type: in vivo
IgE = experiment: ALEX2 chip ELISA-based multiplex assay for IgE binding to allergens; design: species or system human
Description: In another example, forty-two human serum samples with self-reported clinical allergies were obtained and analyzed in triplicate on an ALEX2 chip (developed by Macro Array Diagnostics), which enables an ELISA-based multiplex assay for the detection of IgE adsorption to allergen components and extracts. […] The assay detects the binding of IgE to these allergens in an ELISA-based multiplex fashion. The dynamic range of the chip spans a little over two orders of magnitude, 0.3-50 kUA/L.

With HWNLNAHSVVYALRG the “apoptosis of antigen-presenting dendritic cells by CD4+ T cells” value (dendritic cells) was “induce apoptosis of dendritic cells presenting the Cor_i_9 antigen” and the “allergic reaction after immunotherapy” value [1] was “fail to react to both walnuts and hazelnuts”.

B1: Derp: European house dust mite allergen, Tropomyosin family, on ALEX2 chip (protein, UniProt O18416 1-284, looked up)
Tropomyosin: MEAIKNKMQAMKLEKDNAIDRAEIAEQKARDANLRAEKSEEEVRALQKKIQQIENELDQVQEQLSAANTKLEEKEKALQTAEGDVAALNRRIQLIEEDLERSEERLKIATAKLEEASQSADESERMRKMLEHRSITDEERMEGLENQLKEARMMAEDADRKYDEVARKLAMVEADLERAEERAETGESKIVELEEELRVVGNNLKSLEVSEEKAQQREEAHEQQIRIMTTKLKEAEARAEFAERSVQKLQKEVGRLEDELVHEKEKYKSISDELDQTFAELTGY
modifications: tropomyosin
notes: European house dust mite allergen, Tropomyosin family, on ALEX2 chip
With B1 the “Pearson Correlation coefficient based on ALEX data” value (IgE; Tropomyosin family, correlation of IgE levels with Penm1) was 0.99.

B2: Bet v 1: Silver birch allergen, Bet v 1 family, recombinant allergen on ALEX2 chip (protein)
chain: GVFNYETETTSVIPAARLFKAFILDGDNLFPKVAPQAISSVENIEGNGGPGTIKKISFPEGFPFKYVKDRVDEVDHTNFKYNYSVIEGGPIGDTLEKISNEIKIVATPDGGSILKISNKYHTKGDHEVKAEQVKASKEMGETLLRAVESYLLAHSDAYN
For B2, the “samples with a positive value for the allergen” value (IgE; of forty two human serum samples run on the ALEX2 chip) was 22 samples.

B3: Mal d 1: Apple allergen, Bet v 1 family, on ALEX2 chip (protein, UniProt P43211 2-159, looked up)
Major allergen Mal d 1: GVYTFENEFTSEIPPSRLFKAFVLDADNLIPKIAPQAIKQAEILEGNGGPGTIKKITFGEGSQYGYVKHRIDSIDEASYSYSYTLIEGDALTDTIEKISYETKLVACGSGSTIKSISHYHTKGNIEIKEEHVKVGKEKAHGLFKLIESYLKDHPDAYN
In the case of B3, the “Pearson Correlation coefficient based on ALEX data” value (IgE; Bet v 1 family, correlation of IgE levels with Bet v 1, 22 Bet v 1-positive human serum samples) is reported as 0.62.
